Laboratory results: doi:10.1101/2021.10.18.464838

What was measured:
[1] = molecular target: Hsp72 tracer FITC-Ahx-…; test: fluorescence polarisation
[2] = molecular target: DnaJB4 (recombinant, human, full length, wild type) (human) (UniProt Q9UDY4); test: fluorescence polarisation
[3] = molecular target: DnaJB4 (recombinant, human, full length, wild type) (human) (UniProt Q9UDY4); test: differential scanning fluorimetry

Kd [1]	% tracer displacement [2]	Tmapp of DnaJB4 with 100 µM peptide [3]	Substance
2030 nM			DnaJB4 QPD mutant (from UniProt Q9UDY4 1-337) (natural protein)
	67.6%	59 °C	Hsc70 C-terminal 10-mer peptide, unlabeled, N-acetylated
1000 nM			CHIP (recombinant human) (from UniProt Q9UNE7 1-303) (natural protein)
